Earlier results, collected in PMC6814268.

Tests used:
[1] = target: CEACAM5 IgV (Homo sapiens) (UniProt P06731)
[2] = target: CEACAM1 IgV (Homo sapiens) (UniProt P13688)

Kd [1] | Kd [2] | Substance
800 nM |  | CEACAM5 IgV (from UniProt P06731)
 | 450 nM | CEACAM1 IgV (from UniProt P13688)
